Laboratory results published in publication PMC6796883.

Experiments:
Experiment in all cases: ITC; 25 °C, MicroCal PEAQ-ITC; 50 μM protein in the cell titrated with 17 injections of 750 μM peptide; in the absence of NAD+; 'one set of binding sites' model
[1] = molecular target: SIRT1Δ (human SIRT1 NAD+-dependent deacetylase domain 234-510 with C-terminal regulatory region 641-665) (human) (UniProt Q96EB6)
[2] = molecular target: SIRT6 (human SIRT6 residues 1-355) (human) (UniProt Q8N6T7)
[3] = molecular target: SIRT5Δ (human SIRT5 residues 34-302) (human) (UniProt Q9NXA8)
[4] = molecular target: CobBΔ (E. coli CobB residues 38-279) (E. coli) (UniProt P75960)
[5] = molecular target: SIRT2Δ (human SIRT2 residues 34-356) (human) (UniProt Q8IXJ6)
SIRT2Δ (human SIRT2 residues 34-356) (human), sequence (Q8IXJ6 34-356, stated change not applied): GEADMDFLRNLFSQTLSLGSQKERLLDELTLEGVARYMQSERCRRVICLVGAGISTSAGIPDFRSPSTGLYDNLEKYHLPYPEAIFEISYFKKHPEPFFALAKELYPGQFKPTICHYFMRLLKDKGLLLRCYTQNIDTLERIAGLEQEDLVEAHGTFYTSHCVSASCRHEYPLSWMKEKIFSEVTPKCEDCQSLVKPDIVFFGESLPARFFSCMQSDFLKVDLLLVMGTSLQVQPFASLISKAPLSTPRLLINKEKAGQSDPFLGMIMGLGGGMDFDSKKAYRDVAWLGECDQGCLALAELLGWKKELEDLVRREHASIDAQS

SIRT6 (human SIRT6 residues 1-355) (human), sequence (Q8N6T7 whole entry, the tested form may be a part): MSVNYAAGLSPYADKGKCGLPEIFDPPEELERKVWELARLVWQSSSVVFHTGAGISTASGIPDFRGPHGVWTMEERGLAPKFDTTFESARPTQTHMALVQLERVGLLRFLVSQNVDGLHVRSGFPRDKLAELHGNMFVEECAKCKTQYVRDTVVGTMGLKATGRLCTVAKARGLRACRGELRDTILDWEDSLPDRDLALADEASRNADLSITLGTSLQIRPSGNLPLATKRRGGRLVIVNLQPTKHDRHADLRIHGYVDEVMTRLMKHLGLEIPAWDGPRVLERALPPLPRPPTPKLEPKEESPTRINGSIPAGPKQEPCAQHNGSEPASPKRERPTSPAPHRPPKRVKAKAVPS
SIRT5Δ (human SIRT5 residues 34-302) (human), sequence (Q9NXA8 34-302, stated change not applied): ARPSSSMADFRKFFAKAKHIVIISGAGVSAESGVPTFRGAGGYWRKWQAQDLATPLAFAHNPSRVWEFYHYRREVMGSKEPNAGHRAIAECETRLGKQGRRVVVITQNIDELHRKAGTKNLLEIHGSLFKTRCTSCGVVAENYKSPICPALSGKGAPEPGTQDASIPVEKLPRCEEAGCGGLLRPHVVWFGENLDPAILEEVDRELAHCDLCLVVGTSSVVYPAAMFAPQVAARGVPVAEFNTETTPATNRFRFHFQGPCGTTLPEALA

Substance | Kd [1] [µM] | Kd [2] [µM] | Kd [3] [µM] | Kd [4] [nM] | Kd [5] [µM]
histone H3(1-15)K9cr peptide (from UniProt P68431 2-16) | 45.4 |  |  |  | 
histone H3(1-15)K9ac peptide (from UniProt P68431 2-16) |  | 102 | 153 |  | 
histone H3(1-15)K9bu peptide (from UniProt P68431 2-16) |  |  |  | 200 | 
histone H3(1-15)K9oct peptide (from UniProt P68431 2-16) |  | 0.7 |  | 200 | 
histone H3(1-15)K9hex peptide (from UniProt P68431 2-16) |  |  |  | 300 | 
histone H3(1-15)K9pr peptide (from UniProt P68431 2-16) |  |  |  | 800 | 105

Further lines, results first:

Kd [1] [µM] | Kd [2] [µM] | Kd [3] [µM] | Kd [4] [nM] | Kd [5] [µM] | Substance
4.9 |  |  | 60 | 6.9 | histone H3(1-15)K9dod peptide (from UniProt P68431 2-16)
7 | 54.4 |  | 200 |  | histone H3(1-15)K9dec peptide (from UniProt P68431 2-16)
 |  |  | 50 | 0.8 | histone H3(1-15)K9myr peptide (from UniProt P68431 2-16)
